Data taken from publication PMC3790964 (Biochimica et Biophysica Acta, 2013).

Target: the molecule itself
Test: cross-linking + affinity purification with mass spectrometry

B1: stomatin (natural protein, human (endogenous in erythrocytes), UniProt P27105 1-288, looked up)
chain: MAEKRHTRDSEAQRLPDSFKDSPSKGLGPCGWILVAFSFLFTVITFPISIWMCIKIIKEYERAIIFRLGRILQGGAKGPGLFFILPCTDSFIKVDMRTISFDIPPQEILTKDSVTISVDGVVYYRVQNATLAVANITNADSATRLLAQTTLRNVLGTKNLSQILSDREEIAHNMQSTLDDATDAWGIKVERVEIKDVKLPVQLQRAMAAEAEASREARAKVIAAEGEMNASRALKEASMVITESPAALQLRYLQTLTTIAAEKNSTIVFPLPIDMLQGIIGAKHSHLG
- stoichiometry N: 2
